In the supplement of paper PMC5998384:

Tests used:
HeLa Kyoto [1] = test: solubility in G1/S (NP-40 vs SDS abundance) (log2 ratio); higher = more soluble; settings: cell cycle stage: G1/S
HeLa Kyoto [2] = test: solubility change mitosis vs G1/S (difference of NP-40 vs SDS log2 ratios) (log2 ratio difference); higher = more soluble in mitosis
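Throughout, for solubility change mitosis vs G1/S (difference of NP-40 vs SDS log2 ratios): synchronized HeLa Kyoto cells (double thymidine block for G1/S, nocodazole release for mitosis), protein amounts in NP-40 versus SDS lysates quantified by mass spectrometry, three biological replicates.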
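Throughout, for solubility in G1/S (NP-40 vs SDS abundance): HeLa Kyoto cells arrested at G1/S by double thymidine block, proteins quantified by TMT10plex mass spectrometry in mild NP-40 versus SDS extracts, three biological replicates.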

Sequence | solubility in G1/S (log2) (HeLa Kyoto [1]) | solubility change mitosis (log2) (HeLa Kyoto [2])
MHSSNPKVRSSPSGNTQSSPKSKQEVMVRPPTVMSPSGNPQLDSKFSNQGKQGGSASQSQPSPCDSKSGGHTPKALPGPGGSMGLKNGAGNGAKGKGKRERSISADSFDQRDPGTPNDDSDIKECNSADHIKSQDSQHTPHSMTPSNATAPRSSTPSHGQTTATEPTPAQKTPAKVVYVFSTEMANKAAEAVLKGQVETIVSFHIQNISNNKTERSTAPLNTQISALRNDPKPLPQQPPAPANQDQNSSQNTRLQPTPPIPAPAPKPAAPPRPLDRESPGVENKLIPSVGSPASSTPLPPDGTGPNSTPNNRAVTPVSQGSNSSSADPKAPPPPPVSSGEPPTLGENPDGLSQEQLEHRERSLQTLRDIQRMLFPDEKEFTGAQSGGPQQNPGVLDGPQKKPEGPIQAMMAQSQSLGKGPGPRTDVGAPFGPQGHRDVPFSPDEMVPPSMNSQSGTIGPDHLDHMTPEQIAWLKLQQEFYEEKRRKQEQVVVQQCSLQDMMVHQHGPRGVVRGPPPPYQMTPSEGWAPGGTEPFSDGINMPHSLPPRGMAPHPNMPGSQMRLPGFAGMINSEMEGPNVPNPASRPGLSGVSWPDDVPKIPDGRNFPPGQGIFSGPGRGERFPNPQGLSEEMFQQQLAEKQLGLPPGMAMEGIRPSMEMNRMIPGSQRHMEPGNNPIFPRIPVEGPLSPSRGDFPKGIPPQMGPGRELEFGMVPSGMKGDVNLNVNMGSNSQMIPQKMREAGAGPEEMLKLRPGGSDMLPAQQKMVPLPFGEHPQQEYGMGPRPFLPMSQGPGSNSGLRNLREPIGPDQRTNSRLSHMPPLPLNPSSNPTSLNTAPPVQRGLGRKPLDISVAGSQVHSPGINPLKSPTMHQVQSPMLGSPSGNLKSPQTPSQLAGMLAGPAAAASIKSPPVLGSAAASPVHLKSPSLPAPSPGWTSSPKPPLQSPGIPPNHKAPLTMASPAMLGNVESGGPPPPTASQPASVNIPGSLPSSTPYTMPPEPTLSQNPLSIMMSRMSKFAMPSSTPLYHDAIKTVASSDDDSPPARSPNLPSMNNMPGMGINTQNPRISGPNPVVPMPTLSPMGMTQPLSHSNQMPSPNAVGPNIPPHGVPMGPGLMSHNPIMGHGSQEPPMVPQGRMGFPQGFPPVQSPPQQVPFPHNGPSGGQGSFPGGMGFPGEGPLGRPSNLPQSSADAALCKPGGPGGPDSFTVLGNSMPSVFTDPDLQEVIRPGATGIPEFDLSRIIPSEKPSQTLQYFPRGEVPGRKQPQGPGPGFSHMQGMMGEQAPRMGLALPGMGGPGPVGTPDIPLGTAPSMPGHNPMRPPAFLQQGMMGPHHRMMSPAQSTMPGQPTLMSNPAAAVGMIPGKDRGPAGLYTHPGPVGSPGMMMSMQGMMGPQQNIMIPPQMRPRGMAADVGMGGFSQGPGNPGNMMF [BCL9] | 0.308 | 0.0803
MIKCLSVEVQAKLRSGLAISSLGQCVEELALNSIDAEAKCVAVRVNMETFQVQVIDNGFGMGSDDVEKVGNRYFTSKCHSVQDLENPRFYGFRGEALANIADMASAVEISSKKNRTMKTFVKLFQSGKALKACEADVTRASAGTTVTVYNLFYQLPVRRKCMDPRLEFEKVRQRIEALSLMHPSISFSLRNDVSGSMVLQLPKTKDVCSRFCQIYGLGKSQKLREISFKYKEFELSGYISSEAHYNKNMQFLFVNKRLVLRTKLHKLIDFLLRKESIICKPKNGPTSRQMNSSLRHRSTPELYGIYVINVQCQFCEYDVCMEPAKTLIEFQNWDTLLFCIQEGVKMFLKQEKLFVELSGEDIKEFSEDNGFSLFDATLQKRVTSDERSNFQEACNNILDSYEMFNLQSKAVKRKTTAENVNTQSSRDSEATRKNTNDAFLYIYESGGPGHSKMTEPSLQNKDSSCSESKMLEQETIVASEAGENEKHKKSFLEHSSLENPCGTSLEMFLSPFQTPCHFEESGQDLEIWKESTTVNGMAANILKNNRIQNQPKRFKDATEVGCQPLPFATTLWGVHSAQTEKEKKKESSNCGRRNVFSYGRVKLCSTGFITHVVQNEKTKSTETEHSFKNYVRPGPTRAQETFGNRTRHSVETPDIKDLASTLSKESGQLPNKKNCRTNISYGLENEPTATYTMFSAFQEGSKKSQTDCILSDTSPSFPWYRHVSNDSRKTDKLIGFSKPIVRKKLSLSSQLGSLEKFKRQYGKVENPLDTEVEESNGVTTNLSLQVEPDILLKDKNRLENSDVCKITTMEHSDSDSSCQPASHILNSEKFPFSKDEDCLEQQMPSLRESPMTLKELSLFNRKPLDLEKSSESLASKLSRLKGSERETQTMGMMSRFNELPNSDSSRKDSKLCSVLTQDFCMLFNNKHEKTENGVIPTSDSATQDNSFNKNSKTHSNSNTTENCVISETPLVLPYNNSKVTGKDSDVLIRASEQQIGSLDSPSGMLMNPVEDATGDQNGICFQSEESKARACSETEESNTCCSDWQRHFDVALGRMVYVNKMTGLSTFIAPTEDIQAACTKDLTTVAVDVVLENGSQYRCQPFRSDLVLPFLPRARAERTVMRQDNRDTVDDTVSSESLQSLFSEWDNPVFARYPEVAVDVSSGQAESLAVKIHNILYPYRFTKGMIHSMQVLQQVDNKFIACLMSTKTEENGEAGGNLLVLVDQHAAHERIRLEQLIIDSYEKQQAQGSGRKKLLSSTLIPPLEITVTEEQRRLLWCYHKNLEDLGLEFVFPDTSDSLVLVGKVPLCFVEREANELRRGRSTVTKSIVEEFIREQLELLQTTGGIQGTLPLTVQKVLASQACHGAIKFNDGLSLQESCRLIEALSSCQLPFQCAHGRPSMLPLADIDHLEQEKQIKPNLTKLRKMAQAWRLFGKAECDTRQSLQQSMPPCEPP [MLH3] | -0.402 | 0.153
MILQRLFRFSSVIRSAVSVHLRRNIGVTAVAFNKELDPIQKLFVDKIREYKSKRQTSGGPVDASSEYQQELERELFKLKQMFGNADMNTFPTFKFEDPKFEVIEKPQA [ATP5J] | -0.962 | 0.55
MIMNKMKNFKRRFSLSVPRTETIEESLAEFTEQFNQLHNRRNENLQLGPLGRDPPQECSTFSPTDSGEEPGQLSPGVQFQRRQNQRRFSMEDVSKRLSLPMDIRLPQEFLQKLQMESPDLPKPLSRMSRRASLSDIGFGKLETYVKLDKLGEGTYATVFKGRSKLTENLVALKEIRLEHEEGAPCTAIREVSLLKNLKHANIVTLHDLIHTDRSLTLVFEYLDSDLKQYLDHCGNLMSMHNVKIFMFQLLRGLAYCHHRKILHRDLKPQNLLINERGELKLADFGLARAKSVPTKTYSNEVVTLWYRPPDVLLGSTEYSTPIDMWGVGCIHYEMATGRPLFPGSTVKEELHLIFRLLGTPTEETWPGVTAFSEFRTYSFPCYLPQPLINHAPRLDTDGIHLLSSLLLYESKSRMSAEAALSHSYFRSLGERVHQLEDTASIFSLKEIQLQKDPGYRGLAFQQPGRGKNRRQSIF [CDK18] | 0.0482 | -0.00432
MIRDLSKMYPQTRHPAPHQPAQPFKFTISESCDRIKEEFQFLQAQYHSLKLECEKLASEKTEMQRHYVMYYEMSYGLNIEMHKQAEIVKRLNAICAQVIPFLSQEHQQQVVQAVERAKQVTMAELNAIIGQQLQAQHLSHGHGLPVPLTPHPSGLQPPAIPPIGSSAGLLALSSALGGQSHLPIKDEKKHHDNDHQRDRDSIKSSSVSPSASFRGAEKHRNSADYSSESKKQKTEEKEIAARYDSDGEKSDDNLVVDVSNEDPSSPRGSPAHSPRENGLDKTRLLKKDAPISPASIASSSSTPSSKSKELSLNEKSTTPVSKSNTPTPRTDAPTPGSNSTPGLRPVPGKPPGVDPLASSLRTPMAVPCPYPTPFGIVPHAGMNGELTSPGAAYAGLHNISPQMSAAAAAAAAAAAYGRSPVVGFDPHHHMRVPAIPPNLTGIPGGKPAYSFHVSADGQMQPVPFPPDALIGPGIPRHARQINTLNHGEVVCAVTISNPTRHVYTGGKGCVKVWDISHPGNKSPVSQLDCLNRDNYIRSCRLLPDGRTLIVGGEASTLSIWDLAAPTPRIKAELTSSAPACYALAISPDSKVCFSCCSDGNIAVWDLHNQTLVRQFQGHTDGASCIDISNDGTKLWTGGLDNTVRSWDLREGRQLQQHDFTSQIFSLGYCPTGEWLAVGMENSNVEVLHVTKPDKYQLHLHESCVLSLKFAHCGKWFVSTGKDNLLNAWRTPYGASIFQSKESSSVLSCDISVDDKYIVTGSGDKKATVYEVIY [TLE4] | -0.00686 | -0.13
MKEMVGGCCVCSDERGWAENPLVYCDGHACSVAVHQACYGIVQVPTGPWFCRKCESQERAARVRCELCPHKDGALKRTDNGGWAHVVCALYIPEVQFANVLTMEPIVLQYVPHDRFNKTCYICEEQGRESKAASGACMTCNRHGCRQAFHVTCAQMAGLLCEEEVLEVDNVKYCGYCKYHFSKMKTSRHSSGGGGGGAGGGGGSMGGGGSGFISGRRSRSASPSTQQEKHPTHHERGQKKSRKDKERLKQKHKKRPESPPSILTPPVVPTADKVSSSASSSSHHEASTQETSESSRESKGKKSSSHSLSHKGKKLSSGKGVSSFTSASSSSSSSSSSSGGPFQPAVSSLQSSPDFSAFPKLEQPEEDKYSKPTAPAPSAPPSPSAPEPPKADLFEQKVVFSGFGPIMRFSTTTSSSGRARAPSPGDYKSPHVTGSGASAGTHKRMPALSATPVPADETPETGLKEKKHKASKRSRHGPGRPKGSRNKEGTGGPAAPSLPSAQLAGFTATAASPFSGGSLVSSGLGGLSSRTFGPSGSLPSLSLESPLLGAGIYTSNKDPISHSGGMLRAVCSTPLSSSLLGPPGTSALPRLSRSPFTSTLPSSSASISTTQVFSLAGSTFSLPSTHIFGTPMGAVNPLLSQAESSHTEPDLEDCSFRCRGTSPQESLSSMSPISSLPALFDQTASAPCGGGQLDPAAPGTTNMEQLLEKQGDGEAGVNIVEMLKALHALQKENQRLQEQILSLTAKKERLQILNVQLSVPFPALPAALPAANGPVPGPYGLPPQAGSSDSLSTSKSPPGKSSLGLDNSLSTSSEDPHSGCPSRSSSSLSFHSTPPPLPLLQQSPATLPLALPGAPAPLPPQPQNGLGRAPGAAGLGAMPMAEGLLGGLAGSGGLPLNGLLGGLNGAAAPNPASLSQAGGAPTLQLPGCLNSLTEQQRHLLQQQEQQLQQLQQLLASPQLTPEHQTVVYQMIQQIQQKRELQRLQMAGGSQLPMASLLAGSSTPLLSAGTPGLLPTASAPPLLPAGALVAPSLGNNTSLMAAAAAAAAVAAAGGPPVLTAQTNPFLSLSGAEGSGGGPKGGTADKGASANQEKG [MLLT6] | -1.14 | 0.828
MKLLSLVAVVGCLLVPPAEANKSSEDIRCKCICPPYRNISGHIYNQNVSQKDCNCLHVVEPMPVPGHDVEAYCLLCECRYEERSTTTIKVIIVIYLSVVGALLLYMAFLMLVDPLIRKPDAYTEQLHNEEENEDARSMAAAAASLGGPRANTVLERVEGAQQRWKLQVQEQRKTVFDRHKMLS [TMEM9] | 0.254 | 0.292
MKPVHERSQECLPPKKRDLPVTSEDMGRTTSCSTNHTPSSDASEWSRGVVVAGQSQAGARVSLGGDGAEAITGLTVDQYGMLYKVAVPPATFSPTGLPSVVNMSPLPPTFNVASSLIQHPGIHYPPLHYAQLPSTSLQFIGSPYSLPYAVPPNFLPSPLLSPSANLATSHLPHFVPYASLLAEGATPPPQAPSPAHSFNKAPSATSPSGQLPHHSSTQPLDLAPGRMPIYYQMSRLPAGYTLHETPPAGASPVLTPQESQSALEAAAANGGQRPRERNLVRRESEALDSPNSKGEGQGLVPVVECVVDGQLFSGSQTPRVEVAAPAHRGTPDTDLEVQRVVGALASQDYRVVAAQRKEEPSPLNLSHHTPDHQGEGRGSARNPAELAEKSQARGFYPQSHQEPVKHRPLPKAMVVANGNLVPTGTDSGLLPVGSEILVASSLDVQARATFPDKEPTPPPITSSHLPSHFMKGAIIQLATGELKRVEDLQTQDFVRSAEVSGGLKIDSSTVVDIQESQWPGFVMLHFVVGEQQSKVSIEVPPEHPFFVYGQGWSSCSPGRTTQLFSLPCHRLQVGDVCISISLQSLNSNSVSQASCAPPSQLGPPRERPERTVLGSRELCDSEGKSQPAGEGSRVVEPSQPESGAQACWPAPSFQRYSMQGEEARAALLRPSFIPQEVKLSIEGRSNAGK [ATXN1L] | 0.172 | -0.12
